Patent publication US20240182547A1
Changes are numbered by the printed parent chain.

B1: 12A1 (antibody, V domains shown)
VH: EVQLVESGGGLIQPGGSLRLSCAGSGFTFSSYTMHWVRQAPGKGLEWVSSITGGSSYVDYSASVKGRFTISRDNAQSSLYLQMNSLRAEDTAVYYCARDDYGSGSYSNWFDPWGQGTLVTVSS
VL: QSVLTQPPSVSGAPGQRVTISCTGSSSDIGAGYDVHWYQQLPGTAPKLLIFANTNRPSGVPDRFSGSKSGASASLAITGLQADDEADYYCQSYDRSLSHVFGTGTKVTVLG
B2: 2H1 (antibody, V domains shown)
VH: B1 VH with E1Q, Q3T, V5K, L11V, I12V, P14S, G16R, G24A
VL: B1 VL with D28N, T44R, F51Y, P61A
B3: 12B11 (antibody, V domains shown)
VH: EVQLVESGGGVVQPGRSLRLACAASGFTFNSYAMHWVRQAPGKGLEWVSSITGGSSYVDYSASVKGRFTISRDNAQSSLYLQMNSLRAEDTAVYYCARDMYGLGSYYSPNYFDPWGQGTLVTVSS
VL: B1 VL with Q1S, S2Y, V3E, D28N, T44R, A71T, D83E, R95S, H99Y
B4: 10E7 (antibody, V domains shown)
VH: EVQLVESGGGLVKPGGSLRLSCAASGFTFTSYRMHWVRQAPGKGLEWVSSITGGGNYIEYADSVKGRFTISRDNAKNSLDLQMNSLRAEDTAIYYCARDMYGLGSYYSPNYFDSWGQGTLVTVSS
VL: B1 VL with D28N, T44R
B5: #12m (antibody, V domains shown)
VH: EVQLVESGGGLVKPGGSLRLSCAGSGFAFSSYTMHWVRQAPGKGLEWVSSITGGSSYLDYAHSVKGRFTISRDNGQNSLFLQMNSLRTEDTAVYYCARDDYGSGSYSNYFDPWGQGTLVTVSS
VL: B1 VL with D28N, L41V, A52G, N53S, A82T, D83E
B6: 4G1 (antibody, V domains shown)
VH: QVTLKESGGGLVKPGGSLRLSCAASGFRLSSYGMNWVRQAPGKGLEWVSSISASSSFINYADSVRDRFTISRDNAKNSLYLQMNSLRAEDTAVYYCARDDYGSGSYSNWFDPWGQGTLVTVSS
VL: B1 VL with S25N, D28N, I29L, T44R, G79S
B7: 3H8 (antibody, V domains shown)
VH: B1 VH with I12V, Q13K, Q115R, L118T
VL: B1 VL with S2P, P8L, V10A, A13T, D28N, T44R, A71T, D83E

What follows are binders tested against recombinant F-protein (respiratory syncytial virus (RSV)) (UniProt P03420) (assay: SPR Biacore T-200, antibody captured on protein A chip, F-protein as analyte).
recombinant F-protein (respiratory syncytial virus (RSV)), sequence (P03420 whole entry): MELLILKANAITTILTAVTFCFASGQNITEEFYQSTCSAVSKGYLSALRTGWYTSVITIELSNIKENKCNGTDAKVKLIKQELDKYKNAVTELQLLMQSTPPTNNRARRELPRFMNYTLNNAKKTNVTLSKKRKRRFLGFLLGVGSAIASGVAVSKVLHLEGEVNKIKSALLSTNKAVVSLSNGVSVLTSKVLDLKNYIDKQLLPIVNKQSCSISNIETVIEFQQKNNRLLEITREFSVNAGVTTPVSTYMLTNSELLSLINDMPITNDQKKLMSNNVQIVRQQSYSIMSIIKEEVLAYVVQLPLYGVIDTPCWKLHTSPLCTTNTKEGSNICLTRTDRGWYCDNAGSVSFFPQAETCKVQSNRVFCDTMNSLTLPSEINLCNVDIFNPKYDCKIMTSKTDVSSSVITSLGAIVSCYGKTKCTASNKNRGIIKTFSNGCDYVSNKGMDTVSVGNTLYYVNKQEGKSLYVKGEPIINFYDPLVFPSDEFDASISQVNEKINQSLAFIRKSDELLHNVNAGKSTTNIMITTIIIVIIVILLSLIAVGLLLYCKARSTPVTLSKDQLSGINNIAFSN

Question: How did the Kd turn out when B1 was run?
Answer: 0.0114 nM

Question: And the koff?
Answer: 3.18e-05 s⁻¹

Question: And the kon?
Answer: 2.8e+06 M⁻¹ s⁻¹

Question: For B2, which Kd is on record?
Answer: 0.00384 nM

Question: What about the koff of the same binder?
Answer: 5.74e-05 s⁻¹

Question: What about the kon of the same binder?
Answer: 1.5e+07 M⁻¹ s⁻¹

Question: B3 was tested. Which Kd did it give?
Answer: 0.0115 nM

Question: And the koff?
Answer: 2.89e-05 s⁻¹

Question: And the kon?
Answer: 2.52e+06 M⁻¹ s⁻¹

Question: Which Kd does the source give for B4 here?
Answer: 0.0138 nM

Question: And the koff?
Answer: 2.81e-05 s⁻¹

Question: What about the kon of the same binder?
Answer: 2.03e+06 M⁻¹ s⁻¹

Question: For B5, which Kd is on record?
Answer: 0.00677 nM

Question: What about the koff of the same binder?
Answer: 2.07e-05 s⁻¹

Question: What about the kon of the same binder?
Answer: 3.06e+06 M⁻¹ s⁻¹

Question: What does the source list for B6?
Answer: Kd: 0.0341 nM; koff: 6.02e-05 s⁻¹; kon: 1.77e+06 M⁻¹ s⁻¹

Question: With B7 as the binder, how does the Kd read?
Answer: 0.00397 nM

Question: What about the koff of the same binder?
Answer: 6.06e-05 s⁻¹

Question: And the kon?
Answer: 1.53e+07 M⁻¹ s⁻¹
